# Measurements reported in US20030166587.
# T1: IKK-phosphorylated IκBα in the IκBα/NF-κB complex
# T1 chain: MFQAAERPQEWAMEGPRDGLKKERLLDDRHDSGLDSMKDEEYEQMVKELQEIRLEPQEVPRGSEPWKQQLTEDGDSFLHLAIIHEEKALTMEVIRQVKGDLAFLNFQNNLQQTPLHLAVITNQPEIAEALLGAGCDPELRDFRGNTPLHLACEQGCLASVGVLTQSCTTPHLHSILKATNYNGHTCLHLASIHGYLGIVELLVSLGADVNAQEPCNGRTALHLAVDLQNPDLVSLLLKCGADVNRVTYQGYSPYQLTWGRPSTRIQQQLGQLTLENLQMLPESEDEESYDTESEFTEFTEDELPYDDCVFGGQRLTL
# Molecular target: T1, IKK-phosphorylated IκBα in the …
row,Protein,in vitro ubiquitination of pIκBα in the presence of E1 and E2 (UBC5C)
1,"human β-TrCP with a deletion of the F box region residues 122-168, FLAG-tagged (protein) MDPAEAVLQEKALKFMNSSEREDCNNGEPPRKIIPEKNSLRQTYNSCARLCLNQETVCLASTAMKTENCVAKTKLANGTSSMIVPKQRKLSASYEKEKELCVKYFEQWSESDQVEFVEHLISQMCHYQHGHINSYLKPMLQRDFITERMVRTDSLWRGLAERRGWGQYLFKNKPPDGNAPPNSFYRALYPKIIQDIETIESNWRCGRHSLQRIHCRSETSKGVYCLQYDDQKIVSGLRDNTIKIWDKNTLECKRILTGHTGSVLCLQYDERVIITGSSDSTVRVWDVNTGEMLNTLIHHCEAVLHLRFNNGMMVTCSKDRSIAVWDMASPTDITLRRVLVGHRAAVNVVDFDDKYIVSASGDRTIKVWNTSTCEFVRTLNGHKRGIACLQYRDRLVVSGSSDNTIRLWDIECGACLRVLEGHEELVRCIRFDNKRIVSGAYDGKIKVWDLVAALDPRAPAGTLCLRTLVEHSGRVFRLQFDEFQIVSSSHDDTILIWDFLNDPAAQAEPPRSPSRTYTYISR","failed to promote ubiquitination (lanes 7 and 8), in spite of its binding capacity"
2,"human β-TrCP, FLAG-tagged (protein) MDPAEAVLQEKALKFMNSSEREDCNNGEPPRKIIPEKNSLRQTYNSCARLCLNQETVCLASTAMKTENCVAKTKLANGTSSMIVPKQRKLSASYEKEKELCVKYFEQWSESDQVEFVEHLISQMCHYQHGHINSYLKPMLQRDFITALPARGLDHIAENILSYLDAKSLCAAELVCKEWYRVTSDGMLWKKLIERMVRTDSLWRGLAERRGWGQYLFKNKPPDGNAPPNSFYRALYPKIIQDIETIESNWRCGRHSLQRIHCRSETSKGVYCLQYDDQKIVSGLRDNTIKIWDKNTLECKRILTGHTGSVLCLQYDERVIITGSSDSTVRVWDVNTGEMLNTLIHHCEAVLHLRFNNGMMVTCSKDRSIAVWDMASPTDITLRRVLVGHRAAVNVVDFDDKYIVSASGDRTIKVWNTSTCEFVRTLNGHKRGIACLQYRDRLVVSGSSDNTIRLWDIECGACLRVLEGHEELVRCIRFDNKRIVSGAYDGKIKVWDLVAALDPRAPAGTLCLRTLVEHSGRVFRLQFDEFQIVSSSHDDTILIWDFLNDPAAQAEPPRSPSRTYTYISR","the wild type β-TrCP proteins facilitated the ubiquitination of pIκBα, but not of the non-phosphorylated IκBα"
3,"mouse β-TrCP, FLAG-tagged (protein) MDPAEAVLQEKALKFMNSSEREDCNNGEPPRKIIPEKNSLRQTYNSCARLCINQETVCLTSTAMKTENCVAKAKLANGTSSMIVPKQRKLSASYEKEKELCVKYFEQWSESDQVEFVEHLISQMCHYQHGHINSYLKPMLQRDFITALPARGLDHIAENILSYLDAKSLCAAELVCKEWYRVTSDGMLWKKLIERMVRTDSLWRGLAERRGWGQYLFKNKPPDENAPPNSFYRALYPKIIQDIETIESNWRCGRHSLQRIHCRSETSKGVYCLQYDDQKIVSGLRDNTIKIWDKSTLECKRILTGHTGSVLCLQYDERVIITGSSDSTVRVWDVNAGEMLNTLIHHCEAVLHLRFNNGMMVTCSKDRSIAVWDMASPTDITLRRVLVGHRAAVNVVDFDDKYIVSASGDRTIKVWNTSTCEFVRTLNGHKRGIACLQYRDRLVVSGSSDNTIRLWDIECGACLRVLEGHEELVRCIRFDNKRIVSGAYDGKIKVWDLMAALDPRAPAGTLCLRTLVEHSGRVFRLQFDEFQIVSSSHDDTILIWDFLNDPAAHAEPPRSPSRTYTYISR","the wild type β-TrCP proteins facilitated the ubiquitination of pIκBα, but not of the non-phosphorylated IκBα"
